Laboratory results taken from publication PMC4532469.

Tests used:
[1] = target: LTBP-2 C(H) F2, sub-fragment of human LTBP-2C(H) (six tandem EGF-like motifs, EGFs 9-14) (human); assay: ELISA; solid phase binding assay, saturation curve: LTBP-2 or fragment coated on wells, increasing FGF-2 (0–30 ng/ml; 0–1.8 or 0–1.5 nM), 3 h at 37°C; BSA signal subtracted, bound FGF-2 from a standard ELISA curve; Kd by non-linear regression (GraphPad Prism) for a single binding site (Fig 3, Fig 4B, D, E)
[2] = target: recombinant human LTBP-2 central fragment LTBP-2C(H) (human); assay: as above

recombinant human fibroblast growth factor-2 (FGF-2) (from UniProt P09038 143-288) (ligand)
Kd [1]: 1.03 nM | Kd [2]: 1.02 nM
